In the DeepSol protein solubility set:

Assay: soluble on expression in E. coli; label from the status in PepcDB or PDB records

Row | Sequence | soluble on expression in E. coli
1 | AKDAAFTVDGLSLTSKTNTVSTAISGMTFDLVAPSAAGATTTVTVATNTDGLKASLQSFVDSYNTLATLVTSLTKGSISDKGVFTAAALTGDATPRALLATIRDQLAGASSRAGLSALSQLGIKTQQSNGTLSLDTATFTAALNDKKLGSQIQTMFTGTGATNADGTVDGGLVARMSKALLPYTKADGVLASKTSSLTKVQTRIASDQDALDRRIESLTASLTKKYNAMDLVVGQLKATATSITSIFEAMNAQKNAS | not soluble
2 | ALEGTEFARSEGASALASVNPLKTTVEEALSRGWSVKSGTGTEDATKKEVPLGVAADANKLGTIALKPDPADGTADITLTFTMGGAGPKNKGKIITLTRTAADGLWKCTSDQDEQFIPKGCSR | soluble
3 | ALQAGRLGSTVFVANLDYKVGWKKLKEVFSMAGVVVRADILEDKDGKSRGIGTVTFEQSIEAVQAISMFNGQLLFDRPMHVKMDERALPKGDFFPPERPQQ | soluble
4 | ALSGGFIKGFAHLGVIQALLEHDIKPDIISGVSAGALAGVFYADGNEPYRVLDYFSGHKFQDLTKLVIPKVGLFALGEFIDFLKSNLKAQKLEDLKLPLIITATDLDHGRSMHFHKGNIAERVAASCCMPVLFTPVKIGNTHYVDGGLLMNLPVSTIRNECEKVVAVNVSPLMAEKYKMNIVSIAMRSYHFMFRANTFPERDNCDLLIEPYNLEGYSNTELEKAEEIFEQGYNTASE | not soluble
5 | ALTEEILNAQPNPICVKDRNLHYIAVNKAFSAIHDLAPDAMLGRSASDLVETELAEHFERSDRHVLETGTPYSEAEHIVRADGSDLWVVTRKYRVGLPDRHFVVTCMNDVT | not soluble
6 | APEWTEEDLSQLTRSMVKFPGGTPGRWEKIAHELGRSVTDVTTKAKQLKDSVTCSPGMV | soluble
7 | AQVDLLNVKGEKVGTLEISDFVFNIDPNYDVMWRYVDMQLSNRRAGTASTKTRGEVSGGGRKPWPQKHTGRARHGSIRSPIWRHGGVVHGPKPRDWSKKLNKKMKKLALRSALSVKYRENKLLVLDDLKLERPKTKSLKEILQNLQLSDKKTLIVLPWKEEGYMNVKLSGRNLPDVKVIIADNPNNSKNGEKAVRIDGLNVFDMLKYDYLVLTRDMVSKIEEVLG | soluble
8 | ARLGNWEFDLETNVFTCSEESCRIFGIRDHRQGKSHRALMRRVHPEDRVTVKKAIFQAFRTGVGYCMDHRIVLDDGVERIVSQHAELLSADDGRTSRLVGTVHDIT | not soluble
9 | ASHHLRMHFKTLPAGESLGSLGLWVWGDVDQPSKDWPNGAITMTKAKKDDYGYYLDVPLAAKHRQQVSYLINNKAGENLSKDQHISLLTPKMNEVWIDENYHAHAYRPLKEGYLRINYHNQSGHYDNLAVWTFKDVKTPTTDWPNGLDLSHKGHYGAYVDVPLKEGANEIGFLILDKSKTGDAIKVQPKDYLFKELDNHTQVFVKDTDPKVYNNPYYID | soluble
10 | ASNIHRIQQIVEAAERYNRKVAVSGRSMENIVAVAIELGYLKVKEGVLIGIDAINRYADNKIVIITTGSQGEPMSALTRMAAQEHKKVKIQEGDMVVISANPIPGNEKLVSRVINQLFKKGAEVIYEALADVHVSGHACQEELKLMHTLIKPRFFIPVHGEYRHLKQHKELATNLGMPKANVVIPEIGGVIELTRSSIKKTDTVVAGKVFVDGLGVGDVGNIVLRDRKHLSQDGIVTVVVTIEKVSGTVIAGPDIISRGFVYVRESEDLMEESKEIVKTALLECEEKHITEWATIKSNIKDVLRIFLYERTKRKPMILPIIME | not soluble
11 | ASQPLIQDPVLIEYINHLGNSLVKNAQGVNYAFEFFLINNNELNAFAFFGGHVGIHSGLITTADTESELASVIAHEISHVTQRHLARRLESQSQTQGLTMAAMLSSVLITLVNPTVGIAALSASMAVTQQASINYTRGNEKEADRVGIALLASSNYDPQGAASFFSKMSTKYRYASKPPAMLLTHPLPESRIADARQRALNYPARPLPPSLGFELTKARLKSRYQGEAKSNISFFKLQLEKKRYAIKAAAQYGLALSYFENKQTSEALQLLEMLEKNDKDNLFYVDALTDVYIANNQANKAIKMLERLNLFMPNNQVVSLNYANALLSVKEYDLAAQILQDFLLVNPGNFIAYDILTTLYRTQEKTGLMHMSKAEVYALLGAYPKAVDELQTSYAFLDEQPLMQK | not soluble
12 | ATDVIAQRKAILKQMGEATKPIAAMLKGEAKWDQAVVQKSLAAIADDSKKLPALFPADSKTGGDTAALPKIFEDKAKFDDLFAKLAAAATAAQGTIKDEASLKANIGGVLGNCKSCHDDFRAKKS | soluble
13 | ATGAAAAAATCAATCCTCAAATCTGTGTTAGCGTCTTCTATTACGCTTTCTATCACGCTAAGCAGCACTGCTTTCGCCTCTCCTATCGTGACACCAGACGCACCACAAATTGCCGCTAAAGGCTATGTACTGATGGATTACCATTCAGGAAAAGTGTTGGCTGAAAAAGAGATGGATACCAAACTCTCTCCTGCCAGCCTAACCAAGATGATGACCAGTTACGTGATCGGTCAAGAAGTAAAGCGTGGCAACATCTCGCTAAATGACGATGTCGTGATCAGCAAAAATGCTTGGGCGAAAAACTTCCCTGATTCTTCGAAAATGTTCGTTGAAGTCGGTACCACGGTTAAGGTCAGCGATCTCAACCGCGGCATCATCATCCAATCGGGTAATGATGCGTGTGTAGCGATGGCAGAGCACGTCGCAGGGACGGAAGATGCGTTTGTTGACCTGATGAACGCTTGGGCAAGCTCACTTGGGATGAAGAATTCGCACTTCACTAACTCTCACGGTTTGGACGATCCTAATCTTTACTCTACGCCATACGATCTGGCTCTACTTGGCCAAGCTCTGATCCGTGAWGTGCCTGAAGAGTACGCGATCTACTCCGAGCAAAAATTCACCTACAACGGCATCACTCAATACAACCGTAACGGTTTGCTTTGGGATAAAAGCATGAATGTGGACGGCATTAAAACCGGACATACGAGTGGTGCTGGCTATAACCTCGTGAGCTCTGCTACAGAAGGCAACATGCGCTTGGTTGCGGTGGTGATGGGTACTGACAACGAAAACGCGCGTAAAGCGGAAAGTAAGAAGCTACTGAGCTACGGTTTCCGCTTCTTTGAAACCGTGGCACCACACAAAGCGGGTGAAACTTTCGTGAATGAAACCATCTGGATGGGCGATAAAGACACGATTGCACTCGGTGTTGATAAAGATACTTACGTAACTTTGCCACGCGGACAGGCCAAAGATCTCACCGCCAGCTTTGTACTTGAAAAACAATTGAAAGCACCGCTGAAGAAAGGCGATATCGTCGGCACACTTTACTATCAATTAGCTGGTAACGATATTGCTCAATACCCATTGCTCGCACTGGAAGATGTGCAAGAAGGCAGCCTATTTAGCCGCCTATGGGATTACTTGGTTCTGCTGTTCAAAAGCTGGTTTTAA | not soluble
14 | ATHEVHMLNKGESGAMVFEPAFVRAEPGDVINFVPTDKSHNVEAIKEILPEGVESFKSKINESYTLTVTEPGLYGVKCTPHFGMGMVGLVQVGDAPENLDAAKTAKMPKKARERMDAELAQVN | soluble
15 | ATMPLSPLLTAVIETTLNTLINDDPALGRKLLRLKGKVISLHLRELNQSLTFVFSQRIDVMTGFEGQPDCYLALNLSILPQLREQANITQLIKQDKLELEGDIQLAQKFSELMTDCKPDVEEWLSRITGDVVAHSVVHGVKSIVGALKQQAHKHQNHLAQVLTEEWRIAPPPLEIAYFCDQVDDVKSHAARLEARLNQLLEKA | not soluble
16 | ATRVQAAQKEPASDVSDKLEQIREEIAKDPQSVFKYITISPVKKDDAIIGYRVSPGRDAALFNDVGLEPGDIAVQLNGIDLSDPSSSVQLMQVMSDPQELNLTVERDGQQYDIYIQL | not soluble
17 | AVANATELVNKISENCFEKCLTSPYATRNDACIDQCLAKYMRSWNVISKAYISRIQNASASGEI | soluble
18 | AVQRAKEVLEEISCYPENNDAKELKRILTQPHFMALLQTHDVVAHEVYSD | soluble
19 | AVSGIRQSLISRKALTLFKTVLPAMSQTEKEALDAGTVWWEAELFKGKPEWEKLHAIQAPKLSAEERAFLDGPVNEVCAMVSDFQVTHELADLPPEVWQYLKDNKFFAMIIK | not soluble
20 | AYTTFSQTKNDQLKEPMFFGQPVNVARYDQQKYDIFEKLIEKQLSFFWRPEEVDVSRDRIDYQALPEHEKHIFISNLKYQTLLDSIQGRSPNVALLPLISIPELETWVETWAFSETIHSRSFTHIIRNIVNDPSVVFDDIVTNEQIQKRAEGISSYYDELIEMTSYWHLLGEGTHTVNGKTVTVSLRELKKKLYLCLMSVNALEAIRAYVSFACSFAFAERELMEGNAKIIRLIARDEALHLTGTQHMLNLLRSGADDPEMAEIAEECKQECYDLFVQAAQQEKDWADYLFRDGSMIGLNKDILCQYVEYITNIRMQAVGLDLPFQTRSNPIPWINTWLVSDNVQVAPQEVEVSSYLVGQIDSEVDTDDLSNFQL | soluble
21 | CGPQYRFVWKGGEGGIGDAANALDSGKIIAIKGIGGYHIACLTEDDVVLRLRKLLNRPQQPFAVMVRDLSSAERVAELSNEERAELLSPARPIVVVRKKLPFEAVAPELDTIGIMLPYTPLHHLLFQELKADYLVMTSANLPGEPMYIDESIMEKMELDGFLVHNLEIANRVDDSVVKYVGGRRLLIRRSRGFVPQPIKIDIGFN | not soluble
22 | CQDYIPVKDQKVVDLMSRDVVAIDASDRLVDVVEFLCIDKEQLYPTSSMGIATRLTSLSLEERAKSMKVSKPQVLPVLENGQMVGVVTRQEVLKALRPVFGERLNLVEDKALETA | not soluble
23 | DAETFHKDELDLAYDRISQQFDTDMGGMNKAPKFPMPSIYLYLLRDYALTGRQGSLQHVELTLDKMAMGGIYDTIGGGFARYSVDGAWFAPHFEKMLYDNGQLLSLYSEAYTVTKKPLYKEVIEETYTWLKREMLSPEGGFYSALDADSEGVEGKFYCWQYEELAQLIQEDFALFCAYYAITENGNWEHGMNILYKRMSDEAFAAAHSISAEALRESVSRWKNILFSERDPREHPGLDDKILASWNGIMLKGLCDAYRILGDAAILNTALMNAEFILTKLYDGKTLFHSYKNKKATIPGFLEDYTHVIDGYLALYEVSLDEQWLRQAITLVNHVIDHFYDDDEGLFFYTSRTSEKLIARKKEIFD | not soluble
24 | DALAVALLQARGFSAEDFALSHPGGALGRKLLLKLSDIMHFGNALPKVSPDALIRDALLEISEKGLGMTAIVDEHDAMLGIFTDGDLRRTLDKRIDIHTTAIGEVMTKNPTTAHPEMLAVEGLNLMQNKNINALILCKEDKIVGALNMHDLLKAGVM | not soluble
25 | DDAAIKRKLQSFNISNIVIKSSPISGIKTAVTDQGILYVSEDGKYLFEGKLYELTNNGPVDVAGKILVDKLNSYKDEMIVYPAKNEKHVVTVFMDITCHYCHLLHQQLKEYNDLGITVRYLAFPRAGMNNQTAKQMEAIWTAKDPVFALNEAEKGNLPKEVKTPNIVKKHYELGIQFGVRGTPSIVTSTGELIGGYLKPADLLRALEETAQ | soluble
